Experimental data as given in publication PMC11987601.
Values joined by “and” are separate entries in the source; they are usually repeats but may differ in a detail not shown here. Equal values may be shown once.

Key:
[1] = molecular target: His6-SeFtsZ (Spiroplasma eriocheiris FtsZ) (Spiroplasma eriocheiris)
[2] = molecular target: His6-SeSepF (Spiroplasma eriocheiris SepF) (Spiroplasma eriocheiris); experiment: BLI; as a1, in the presence of GTP
[3] = molecular target: His6-SeSepF (Spiroplasma eriocheiris SepF) (Spiroplasma eriocheiris); experiment: BLI; His6-SeSepF immobilised on Ni-NTA biosensor tips (10 ug/ml), SeFtsZ or SeFtsZ L272E as analyte (0-100 ug/ml); Octet N1; 50 mM Tris-HCl pH 7.4, 100 mM KCl, 10 mM MgCl2, 0.02% Tween-20; no nucleotide (apo)

Chain of His6-SeSepF (Spiroplasma eriocheiris SepF) (Spiroplasma eriocheiris) (partner, as listed by the source): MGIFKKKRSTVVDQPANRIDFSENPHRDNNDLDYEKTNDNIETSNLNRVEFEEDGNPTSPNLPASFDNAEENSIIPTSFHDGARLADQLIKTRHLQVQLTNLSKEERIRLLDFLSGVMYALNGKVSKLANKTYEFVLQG

Substance | SeFtsZ retrieved from the pellet fraction with GTP after mixing with SeSepF (sedimentation assay of polymerization; 16% without SeSepF) [1] | Kd [2] | Kd [3]
His6-SeSepF (Spiroplasma eriocheiris SepF) (natural protein) | 28% |  | 
SeFtsZ L272E mutant (from UniProt A0A0H3XMR3 1-411) (natural protein) |  | 0.7 µM | 0.98 µM
Spiroplasma eriocheiris FtsZ, His-tag removed (from UniProt A0A0H3XMR3 1-411) (natural protein) |  | 53.9 µM | 1.04 µM and 1.13 µM
